Laboratory results reported in US20250367313A1 (MULTITUDE, published 2025).
Changes are numbered by the printed parent chain. Values belong to the binder of their own block, whether it stands above or below them.

Key:
[1] = molecular target: T1, recombinant MUC18 protein (rProtein) (Homo sapiens (Human), UniProt P43121 24-559); assay: ELISA titration, antibody with varying concentrations of recombinant MUC18 protein
T1 sequence: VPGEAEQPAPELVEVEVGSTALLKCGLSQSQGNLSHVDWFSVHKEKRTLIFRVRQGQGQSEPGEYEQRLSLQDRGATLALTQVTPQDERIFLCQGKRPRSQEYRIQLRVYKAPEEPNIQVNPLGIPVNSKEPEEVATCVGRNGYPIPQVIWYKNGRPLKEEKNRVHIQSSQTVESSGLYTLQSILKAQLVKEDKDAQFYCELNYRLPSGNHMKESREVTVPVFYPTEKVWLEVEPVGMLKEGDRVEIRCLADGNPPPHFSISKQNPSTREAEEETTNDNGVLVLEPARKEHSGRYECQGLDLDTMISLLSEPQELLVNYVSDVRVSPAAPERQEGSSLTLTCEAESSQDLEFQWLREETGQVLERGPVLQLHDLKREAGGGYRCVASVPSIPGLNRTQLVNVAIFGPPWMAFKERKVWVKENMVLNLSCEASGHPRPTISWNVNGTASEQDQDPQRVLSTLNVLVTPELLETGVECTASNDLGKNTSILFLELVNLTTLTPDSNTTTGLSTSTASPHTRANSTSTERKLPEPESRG
Protocol: Antibodies were incubated with varying concentrations of recombinant MUC18 protein (rProtein).

[2] = molecular target: T2, human MUC18 (human, UniProt P43121 24-646); assay: cell-based or functional assay
T2 sequence: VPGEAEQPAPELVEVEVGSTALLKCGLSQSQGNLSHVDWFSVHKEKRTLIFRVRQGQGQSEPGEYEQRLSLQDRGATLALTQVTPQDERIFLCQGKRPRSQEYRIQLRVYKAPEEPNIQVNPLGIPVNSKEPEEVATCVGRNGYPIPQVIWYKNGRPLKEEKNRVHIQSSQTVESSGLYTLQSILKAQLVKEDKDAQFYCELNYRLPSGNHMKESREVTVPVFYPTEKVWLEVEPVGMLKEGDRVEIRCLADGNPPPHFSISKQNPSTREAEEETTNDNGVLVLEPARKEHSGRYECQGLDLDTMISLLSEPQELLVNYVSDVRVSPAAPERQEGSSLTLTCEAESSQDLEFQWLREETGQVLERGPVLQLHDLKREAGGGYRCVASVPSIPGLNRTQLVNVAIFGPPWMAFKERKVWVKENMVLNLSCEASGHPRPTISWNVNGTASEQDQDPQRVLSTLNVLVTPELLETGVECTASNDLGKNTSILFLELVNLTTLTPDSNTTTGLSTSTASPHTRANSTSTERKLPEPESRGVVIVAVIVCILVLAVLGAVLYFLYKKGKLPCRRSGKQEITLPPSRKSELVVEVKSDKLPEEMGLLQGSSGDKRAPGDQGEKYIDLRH

Binding affinity [1]: 50 nM
B1: CL070341 (antibody, V domains shown)
VH: EVQLVESGGDLVRPGGSLKLSCAASGFTFSTYGMSWVRQSPDKRLEWVATINSRASYTYYPDSVKGRFTISRDNAKNTLYLQMSSLKSEDTGLYFCARHRRDWDSYYAMDYWGQGTSVTVSS
VL: NIMLTQSPSSLAVSTGDKVTMNCKSSQSVLYNSNQKNYLAWYQQKPGQSPTLLIYWASTSESGVPDRFTGSGSGTDFTLTISSVQAEDLAVYYCHQYLSSWTFGGGTKLEIK
notes: also called anti-MUC18 antibody CL070341

Binding affinity [1]: 0.19 nM
B2: CL070350 (antibody, V domains shown)
VH: AVQLVESGGDLLRPGGSLKLSCVASGFTFNNYGMSWVRQTPDKRLEWVATINRGGSYTYYTDSVKGRFTISRDNAKKTLYLQMSSLKSEDTAMYYCARHRRDWDSYYAMDYWGQGTSVTVSS
VL: B1 VL with L4M, T15A, T20A, N22S, Q27R, Q44L, T51K, S60R, L109V
notes: also called anti-MUC18 antibody CL070350

Binding affinity [1]: 1.56 nM
B3: CL070349 (antibody, V domains shown)
VH: DVQLQESGPGLVKPSQSLSLTCSVTGYSITSGFYWNWIRQLPGNKLEWLGYINFGGTNNYNPSLKIRGSITRDTSKNQFFLKLNSVTTEDTATYYCARGGNDGGFTYWGQGTLVTVSA
VL: ENVLTQSPAIVAASLGQKVTMTCRASSSVSSTYFHWYQQKSGASPKPLLHRTSNLASGVPARFSGSGSGTSYSLTISSVEAEDDATYYCHQWSGYPYTFGGGTKLEIK
notes: also called anti-MUC18 antibody CL070349

Binding affinity [1]: 0.39 nM
B5: CL070336 (antibody, V domains shown)
VH: DVQLQESGPDLVKPYQSLSLTCTVTGYSITSGYSWHWIRQFPGNKLEWLGYMHYSATPNYNPSLKSRISITRDTSKNQFFLQLNSVTTEDTATYYCSRSLNWDVLDYWGQGTTLIVSS
VL: DIVLTQSPAYLPVSLGQRATISCRASKSVRTSGYNYLHWYQQKPGQPPKLLIYLASNPESGVPGRFSGSGSGTDFTLNIHPVEEEDSATYYCQHSREFPFTFGGGTQLEIK
notes: also called anti-MUC18 antibody CL070336

Binding affinity [1]: 3.12 nM
B7: CL070370 (antibody, V domains shown)
VH: QIQLVQSGPELKKPGETVKISCKTSGYTFTDYSMHWVKQAPRKGLKWMGWINTETGEPTYADDFKGRFAFSLETSASTAYLQINNLRNEDTATYFCVSYDYDAVSYWGQGTLVTVSA
VL: DIVMTQSHKFMSTSVGDRVNITCKASQYVGAAVAWYQQKPGQSPKLLIYWASTRHTGVPDRFTGSGSGTDFTLTINNVQSEDLADYFCQQYGNYRTFGGGTKLEIK
notes: also called anti-MUC18 antibody CL070370

The remaining lines, values behind:

B4: CL070333 (antibody, V domains shown)
VH: QVQLQQSGPELVKPGTSVKISCKASGFTFTGYYLHWLKQRPGQGLEWIGWIYPGNVNTEFNEKFKGQATLTADKSSSTAYMQLSSLTSEDSAVYFCARSGYFASSYEFAYWGQGTLVTVSA
VL: DIQMTQSPASLSASVGETVTITCRASENIYSYLAWYQQKQGKSPQLLVYNAKTLAEGVPSRFSVSGSGTHFSLKINSLQPEDFGSYYCQHHYGTPLTFGAGTKLELK
notes: also called anti-MUC18 antibody CL070333
Binding affinity [1]: 12.5 nM

B6: CL070335 (antibody, V domains shown)
VH: B5 VH with Y15S, L49M, M52I, A56T, P58T, N84S, Y95F
VL: B5 VL with N35S, P58L, G64D, S87A, S95T, Q107K
notes: also called anti-MUC18 antibody CL070335
Binding affinity [1]: 0.39 nM

B8: CL070324 (antibody, V domains shown)
VH: EVLLQQSGPELVKPGASVKIPCKASGYTFTDYNMDWVKQSHGKSLEWIGDINPNNGATLYNQNFRGKATLTVDKSSSTAYMELRSLTSEDTAVYYCTRSGYDDYYALDYWGQGTSVTVSS
VL: QTVLTQSPAIMSASLGEEITLTCSASSSVGYMHWYQQKSGTSPKLLIYSTSNLASGVPSRFSGRGSGTFYSLTISTVEAEDAADYYCHQWSNYPSTFGTGTKLELK
notes: also called anti-MUC18 antibody CL070324
Binding affinity [1]: 50 nM

B9: J253-vc-MMAE (antibody, V domains shown)
VH: QVQLQQSGAELVKPGASVKLSCKASGYTFTSYDINWVRQRPEQGLEWIGWIFPGDGSTDYNEKFKGKATLTTDKSSSTAYMQLSRLTSEDSAVYFCARYHFFDNWGQGTTLTVSS
VL: DIVITQDELSNPVTSGESVSISCRSSKSLLYKDGKTYLSWFLQRPGQSPQLLIYLMSTRASGVSDRFSGSGSGTDFTLEISRVKAEDVGVYYCQQLVEYPYTFGGGTKLEIK
modifications: maleimidocaproyl-Val-Cit-PAB-MMAE coupled to the antibody by a thiol-based reaction; sites and drug load not stated
IC50 of cell viability, GAK cells [2]: 0.297 nM
IC50 of cell viability, HMV-II cells [2]: 0.103 nM
IC50 of cell viability, SK-MEL-2 cells [2]: 0.115 nM

B10: J253 (antibody, V domains shown)
VH: B9 VH
VL: B9 VL
notes: also called anti-MUC18 antibody (J253)
Binding affinity [1]: 0.39 nM
